Test results from PMC10347550 (2023).

What follows are binders tested against integrin αIIbβ3 (Homo sapiens, UniProt P08514) (assay: tryptophan fluorescence quenching (Stern-Volmer)).
Ac-MRADH-NH2 (also: Met and His coordinated to Δ-Ru(Ph2phen)2, dichloride salt) [Δ-[Ru(Ph2phen)2(Ac-MRADH-NH2)]Cl2 (Δ-[3]Cl2)] gave a Kd of 112 nM. Ac-MRGDH-NH2 (also: Met and His coordinated to Λ-Ru(Ph2phen)2, Cl2 salt) [Λ-[Ru(Ph2phen)2(Ac-MRGDH-NH2)]Cl2 (Λ-[1]Cl2)] was tested, and the Kd was 61 nM. For Ac-MRGDH-NH2 (also: Met and His coordinated to Δ-Ru(Ph2phen)2, Cl2 salt) [Δ-[Ru(Ph2phen)2(Ac-MRGDH-NH2)]Cl2 (Δ-[1]Cl2)], the Kd was 83 nM.
